From the RNAGym collection of RNA variant scans (doi:10.1073/pnas.2313332121)

B1: TPR t1 (parent)
chain: GACCAAUCUGCCCUCAGAGCUCGAGAACAUCUUCGGAUGCAGAGGAGGCAGGCUUCGGUGGCGCGAUAGCGCCAACGUCCUCAACCUCCAAUGCAUCCCACCACAUGAUGAUGCCUGAAGAGCCUUGGUUUUUUG

Variants of: B1
Assay: polymerase ribozyme fitness, log enrichment relative to wild type (log ratio); higher = more active; in vitro selection for triplet polymerase activity
Summary of the method: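 Fitness is a logarithmic measure of how a genotype enriched relative to the wild type, with replicate averages weighted by inverse variance. The logarithm uses base 2, and enrichment came from Illumina sequencing of input and output libraries. Those libraries were PCR-built, transcribed mutants of each subunit of a heterodimeric triplet polymerase ribozyme, passed through one triplicate in vitro selection round that included frozen incubation at −7 °C, gel excision of extended constructs and streptavidin-bead capture. Genotypes were kept only if they had ≥10 input reads and ≥1 read per output.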

Variant | polymerase ribozyme fitness (log ratio)
GCCCAAUCUGCCAUCAGAGCUCGAGAACAUCUUCGGAUGCAGAGGAGGCAGGCUUCGGUGGCGCGAUAGCGUCAACGUCCUCAACCUCCAAUGCAUCCCACCACAUGAUGAUGCCUGAAGAGCCUUGGUUUUUUG [A2C C13A C72U] | -4.81
GCCAAAUCGGCGCUCAGAGCUCGAGAACAUCUUCGGAUGCAGAGGAGGCAGGCUUCGGUGGCGCGAUAGCGCCAACGUCCUCAACCUCCAAUGCAUCCCACCAUAUGAUGAUGCCCGAAGAGCCUUGGUUUUAUG [A2C C4A U9G C12G C104U U116C U133A] | 0.375
GCCCAAUCUGCCCUCAGAGCUCGAGAACAUCUUCGGAUGCAGAGGAGGCAGGCUUCGGUGGCGUGAUAGCGCCAACGUCCUCAACCUCCAAUGCAUCCCACCACAUGAUGAUGCCUGAAGAGCCUUGGUUUUUUG [A2C C64U] | -1.07
GCCCAAUCUGUCCUCAGAGCUCGAGAACAUCUUCGGAUGCAGAGGAGGCAGGCUUCGGUGGCGCGAUAGCGCCAACGUCCUCAACCUCCAAUGCAUCCCACCACAUGAUGAUGCCUGAAGAGCCUUGGUUUUUUG [A2C C11U] | -2.65
GCGCAAUCUGCCCUCAGAGCUCGAGAAGAUCUUCGGAUGCAGAGGAGGCAGGCUUCGGUGGCGCGAUAGCGCCAACGUCCUGAACCUCCAAUGCAUCCCACCACAUGAUGAUGCCUGAAGCGCCUUGCUUUUUUG [A2C C3G C28G C82G A121C G128C] | -4.07
GCCCAAUCUGCCCUCAGUGCUCGAGAACAUCUUCGGAUGCAGAGGAGGCAGGCUUCGGUGGCGCGAUAGCGCCAACGUCCUCAACCUCCAAUGCAUCCCACCACAUGAUGAUGCCUGAAGAGCAUUGGUUUUUUG [A2C A18U C124A] | -3.22
GCCCAAUCUGCCCUCAGAGCUCGAGAACAUCUUCGGAUGCAGAGGAGGGAGGCUUCGGUGGCGCGAUAGCGCCAACGUCCUCAACCUCCAAUGCAUCCCACCACAUGAUGAUGCCUGAAGAGCCUUGGUUUUUUG [A2C C49G] | -2.18
GCUCAAUCUGCCCUCAGAGCUCGAGAACAUCUUCGGAUGCAGAGGAGGCAGGCUUGGGUGGCGCGAUAUCGCCAACGUCCUCAACCUCCAAUGCAUCCCACCACAUGAUGAUGCCUGAAGAGCCUUGGUUUUUUG [A2C C3U C56G G69U] | -4.15
GCCCAAUCUGUCCUUAGAGCUCGAGAACAUCUUCGGAUGCAGAGGAGGCAGGCUGCGGUGGCGCGAUAGCGCCAACGUCCUCAACCUCCGAUGCAUCCCACCACAUGAUGAUGCCUGAAGGGCCUUGGUUUUUUG [A2C C11U C15U U55G A90G A121G] | -0.451
GCCGAAUCUGCCCUCAGAGCUCGAGAACAUCUUCGGAUCCAGAGGAGGCAGGCUUCGGUGGCGCGAUAUCGCCAACGUCCUCAACCUCCAAUGCAUCCCACUACAUGAUGAUGCCUGAAGAGCCUUGGUUUUUUG [A2C C4G G39C G69U C102U] | -2.39
GCCCAAUAUGCCCUCAGAGCUCGAGAACAUCUUCGGAUGCAGAGGAGGCAGGCUUCGGUGGCGCGAUAGCGUCAACGUCCUCAACCUCCAAUGCAUCCCACCACAUGAUGAUGCCUGAAGAGUCUUGGUUUUUUG [A2C C8A C72U C123U] | -0.16
GCCCAAUCUGCCAUCAGAGCUCGAGAACAUCUUCGGAUGCAGAGGAGGCAGGCUUCGGUGGCGCGAUAGCGCCAACGUCCUCAACCUCCAAUGCAUCCCACCACAUGAUGAUGCCUGAAGAGCCUUGGUUUUUUG [A2C C13A] | -2.71
GCCACAUCUGCCCUCAGAGCUCGAGAACAUCUUCGGAUGCAGAGGAGGCAGGCUUCGGUGGCGCGAUAGCGCCAACGUCCUCAACCUCCAAUGCAUCCCACCACAUGAUGAUGCCUGAAGAGCCGUGGUUUUUUG [A2C C4A A5C U125G] | -0.48
GCCCAAUCUGCCCUCAGAGCUCGAGAACAUCUUCGGAUGCAGAGGAGGCAGGGUUCGGUGGCGCGAUAGGGCCAACGUCCUCAACCUCCAAUGCAUCCCACCACAUGAUGAUGCCUGAAGAGCCUUGGUUUUUUG [A2C C53G C70G] | -5.19
GCCCAAUCUGCCCUCAGAGCUCGAGAACAUCUUCGGAUGUAGAGGAGGCAGGCUUCGGUUGGGCGAUAGCGCCAACGUCCUCAACCUCCAAUGCAUCCCACCACAUGAUGAUGCCUGAAGAGCCUUGGUUUUUUG [A2C C40U G60U C62G] | -3.56
GCCCAAUCUGCCUUCAGAGCUCGAGAACAUCUUCGGAUGCAGAGGAGGCAGGCUUCGGUGGCGCGAUAGCGCCAACAUCCUCAACCUCCAAUGCAUCCCACCACAUGAUGAUGCCUGAAGAGUCUUGGUUUUUUG [A2C C13U G77A C123U] | 0.26
GCCCAAUGUGCCCUCAGAGCUCGAGAACAUCUUCGGAUGCAGAGGAGUCAGGCUUCGGUGGCGCGAUAGCACCAACGUCCUCAACCUCCAAUGCAUCCCAUCACAUGAUGAUGCCUGAAGAGCCUUGGUUUUUUG [A2C C8G G48U G71A C101U] | -2.14
GCCGAAUCUGCCCUCAGAGCUCGAGAACAUCUUCGGAUGCAGAGGAGGCAGGCUUCGGUGGCGCGAUAGCGCCAACGUCCUCAACCUCCAAUGCAUCCCACCACAUGAUGAUGACUGAAGAGCCUUGGUUUUUUG [A2C C4G C114A] | -3.53
GCCCAAUCUGGCCUCAUAGCUCGAGAACAUCUUCGGAUGCAGAGGAGGCACGCUCGGGUGGCGCGAUAGCGCCAACGUCCUCAACCUCCAAUGCAUCCCACCACAUGAUGAUGCCUGAAGAGCCUUGGUUUUUUG [A2C C11G G17U G51C U55C C56G] | -4.03
GCCCAAUCUGCCCUCAGAGCUCGAGAACAUCUUCGGAUGCAGAGGAGGCAGGCUUCGGUGGCGCGAUAGUGCCAACGUCCUCAACCUCCACUGCAUCCCAUCACAUGAUGAAGCCUGAAGAGCCUUGGCUUUUUG [A2C C70U A91C C101U U112A U129C] | -4.54
GCCCAAUCUGCCCUCAGAGCUCGAGAACAUCUUCGGAUGCAGAGGAGGCAGGCUUCGGUGGCGCGAUAGCGUCAACGUCCUCAACCUCCAAUGCAUCCCACCACAUGAUGAUGCCUAAAGAGCCUUGGUUUUUUG [A2C C72U G117A] | -3.25

Variant | polymerase ribozyme fitness (log ratio)
GCCCAAUCUGCCCUCAGAGCUCGAGAACAUCUUCGGAUGCAGAGGAGGCAGGCUUCGGUGGCGCGAUAGCGACAACGUCCUCAACCUCCAAUGCAUCCCACCACAUGAUGAUGGCUGAAGAGCCUUGGUUUUUUG [A2C C72A C114G] | -4.02
GCCCCAUCUGCCCUCAGAGCUCGAGAACAUCUUCGGAUGCAGAGGAGGCAGGCUUCGGUGGCGUGAUAGCGCCAACGUCCUCAACCUCCAAUGCAUCCCACCACAUGAUGAUGGCUGAAGAGCAUUGGUUUUUUG [A2C A5C C64U C114G C124A] | -3.6
GCCCAAUCUGCCCUCAGAGCUCGAGAACAUCUUCGGAUGCAGAGGAGGCAGGCUUCGGUGGCGCGAUAGCGCCAACGUCCUCAACCUCCAAUGCAUCCCACCACAUGAUGAUGCCUGAAGAGCCUUGGUUUUUUG [A2C] | -1.4
GCCUAAUCUGCCCUCAGAGCUCGAGAACAUCUUCGUAUGCAGAGGAGGCAGGCUUCGGUGGCGCGAUAGCGCCAACGUCCUCAACCUCCAAUGCAUCCCACCAUAUGAUGAUGCCUGAAGAGCCUUGGUUUUUUG [A2C C4U G36U C104U] | -2.28
GCCCAAUCUGCCCUCAGAGCUCGAGAACAUCUUCGGCUGCAGAGGAGGCAGGCUUCGGUGGCGCGAUAGCGCCAACGUCCUCAACCUCCAAUGUAACCCACCACAUGAUGACGUCUGAAGAGCCUUGGUUUUUUG [A2C A37C C94U U96A U112C C114U] | -4.55
GCCCAAUCUGCACUCAGAGCUCGAGAACAUCUUCGGAUGCAGAGGAGGCAGGCUUCGGUGGCGCGAUAGCGCCAACGUCCUCAACCUCCAAUGCAUCCCACCACAUGAUAAUGCCUGAAGAGCCUUGGUUUUAUG [A2C C12A G110A U133A] | -2.17
GCCCAAUCUGCCCUCAGAGCUCGAGAAUAUCUUCGGAUGCAGAGGAGGCAGGCUUCGGUGGCGCGAUAGCGCCAACGUCCUCAACCCCCAAUGCAUCCCACCACAUGAUGAUGCCUGAAGAGCCUUGGUUUUUUG [A2C C28U U87C] | -3.82
GCCUAAUCUACCCUCAGAGCUCGAGAACAUCUUCGGAUGCAGAGGAGGCAGGCUUCCGUGUCGCGAUAGCGCCAACGUCCUCAACCUCCAAUGCAUCCCACCACAUGAUGAUGCCUGAAGAGCCUUGGUUUUUUG [A2C C4U G10A G57C G61U] | -2.37
GCCCAAUCUGUCCUCAGAGCUCGAGAACAUCUUCGGAUGCAGAGGAGGCAGGCUUCGGUGGCGCGAUAGCGCCAACGUCCUCAACCUCCAAUGCAUCCCACCACAUGAUGAUGGCUGAAGAGCCUUGGUUUUUUG [A2C C11U C114G] | -4.14
GCGCAAUCUGCCCUCAGAGCUCGAGAACAUCUUCGGAUGCAGAGGAGGCAGGCUUCGGUGGCGCGAUAGCGCCAACGUCCUCAACCUCCGAUGCAUCCCACCACAUGAUGAUGCCUGAAGAGCCUUGGUUUUUUG [A2C C3G A90G] | -3.04
GCCGAAUCUGCCCUCAGAGCUCGAGAACAUCUUCGGAUGCAGAGGAGGCACGCUUCGGUGGCGCGAUAGCGCCAACGUCCUCAACCUCCAAUGCAUCCCAACACAUGAUGAUGCCUGAAGAGCCUUGGUUUUUUG [A2C C4G G51C C101A] | -6.08
GCCCAAUCUGCCAUCAGAGCUAGAGAACAUCUUCGGAUGCAGAGGAGGGAGGCUUCGGUGGCCCGAUAGCGCCAACGUCCUCAACCUCCAAUGCAUCCCACCACAUGAUGAUGCCUGAAGAGUCUUGGUUUUUUG [A2C C13A C22A C49G G63C C123U] | -5.96
GCCCAAUCUGCCUUCAGAGCUCGAGAACAUCUUCGGAUGCAGAGGAGGCAGGCUUCGGUGGCGCGAUAGCGCCAACGUCCUCAACUUCCAAUGCAUCCCACCACAUGAUUAUGCCUGAACAGCCUUGGUUUUUUG [A2C C13U C86U G110U G120C] | -4.02
GCCCAAUCUGCCCUCAGAGCUCGAGAGCUUCUUCGGAUGCAGAGGAGGCAGGCUUCGGUGGCGCGAUAGCGCCAACAUCCUCAACCUCCAAUGCAUCCCACCACAUGAUGAUACCUGAAGAGCGUUGGUUUUUUG [A2C A27G A29U G77A G113A C124G] | -3.05
GCCCAAUCUGACCUCAGAGCUCGAGAACAUCUUCGGAUGCAGAGGAGGCAGGCUUCGGUAGCGCGAUAUCGCCAACGUCCUCAACCUCGAAUGCAUCCCACCACAUGAUGAUGCCUGAAGAACCUUGGUUUUUUG [A2C C11A G60A G69U C89G G122A] | -3.67
GCCCAAUCUGCCCUCAGAGCUCGAGAACAUCUUCGGAUGCCGAGGAGGCAGGCUUCGGUGGCGCGAUAGCGCCAACGUCCUCAACCUCCAAUGCAUCCCACCACAUGAUGAUGCCUGAAGAGCCUUGGUUUUUUG [A2C A41C] | -2.75
GCCAAACCUGCCCUCAGAGCUCGAGAACAUCUUCGGAUGCAGAAGAGGCAGGCUUGGGUGGCGCGAUAGCGCCAACGUCCUCAACCUCCAAUGUAUCCCACCACAUGAUGAUGCCUGAAGAGCCUUGGUUUUUUG [A2C C4A U7C G44A C56G C94U] | -1.93
GCCCAAUCUGUCCUCAGAGCUCGAGAACAUCUUCGGAUGCAGAGGAGGCAGGCUUCGGUGACGCGAUAGCGCCAACGUCCUCAACCUCCAAUGCAUCCCACCACAUGAUGAUGCCUGAAAAGCCUUGGUUUUUUG [A2C C11U G61A G120A] | -0.476
GCCCAAUCUGCCCUCAGAGCUCGAGAACAUCUUCGGAUGCAGAGGAGGCAGGCUUAGGUGGCACGAUAGCGCCAACGUCCUCAACCUCCAAUGCAUCCCACCACAUGAUGAUGCCUGAAGAGCCUUGGUUUUUUG [A2C C56A G63A] | -4.79
GCCCAAUCUGCCCUCAGAGCUCGAGAACAUCUUCGGUUGCAGAGGAGACAGGCAUCGGUGGCGCGAUAGCGCAAACGUGCUCAACCUCCAAUGCAUCCCACCACAUGAUGAUGCCUGAUGAGCCUUGUUUUUUUG [A2C A37U G48A U54A C73A C79G A119U G128U] | -5.61
GCCCAAUCUGCACUCAGAGCUCGAGAACAUCUUCGGAUGCAGAGGAGGCAGGCUUCGGUGGCGCGAUAGCGCCAACGUCCUCAACCUCCAAUGCAUCCCACCAUAUGAUGAUGCCUGAAGAGCCUUGGUUUUUUG [A2C C12A C104U] | -1.93
